Assay results as given in article PMC3196243 (Biochemistry, 2011).
Where two headings read alike, the source gives them in different places.

T1: His6-IC3 (third intracellular loop of the dopamine D2S receptor, R217-Q345) (UniProt P61169-2 217-345)
T1 sequence (looked up): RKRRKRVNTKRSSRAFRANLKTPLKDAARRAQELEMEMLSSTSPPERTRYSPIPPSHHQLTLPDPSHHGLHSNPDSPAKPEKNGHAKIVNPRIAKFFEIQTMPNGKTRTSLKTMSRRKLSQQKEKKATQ

B1: S100B (natural protein)
chain: SELEKAMVALIDVFHQYSGREGDKHKLKKSELKELINNELSHFLEEIKEQEVVDKVMETLDNDGDGECDFQEFMAFVAMVTTACHEFFEHE
B2: IC3-C58 (domain or fragment, UniProt P61169-2 288-345, looked up)
chain: SNPDSPAKPEKNGHAKIVNPRIAKFFEIQTMPNGKTRTSLKTMSRRKLSQQKEKKATQ

Tests used:
[1] = target: T1, His6-IC3 (third intracellular loop of …); experiment: pull-down
[2] = target: B1; experiment: NMR titration
[3] = target: B1; experiment: NMR titration; remark: listed apart in the source

binding result [1] | Kd [2] [µM] | Kd [3] [µM] | Binder
binds |  |  | B1
 | 1 ± 1 | 274 ± 58 | B2
